Reference: patent US20210340516A1, “COMPOSITIONS CONTAINING ARGINASE 1 FOR THE TREATMENT OF NEUROVASCULAR AND RETINAL VASCULAR DISORDERS” (Augusta University Research Institute, Inc., priority 2020, published 2021)

Key:
[1] = Pharmacokinetic profile of PEG-A1 in mouse vitreous by arginase activity after intravitreal administration; type: in vivo; conditions: adult mice, intravitreal 6.8 ng in 1 μL
From the text: Based on the results of the above studies showing detrimental effects of A1 hemizygous deletion on vascular repair in A1^+/− mice and the findings that increases in A1 expression accompany the beneficial effects of A2 deletion on the vascular injury, it was hypothesized that treatment with A1 could be useful in limiting OIR-induced retinal injury. To test this, a PEG-A1 was used. […] Adult mice were used in this experiment to get higher vitreous yield for ease of processing.

[2] = test system: WT pups subjected to oxygen-induced retinopathy (OIR); assay: OIR mouse model: Western blotting and immunolabelling of retina (A1, cleaved PARP, calbindin horizontal cells); type: in vivo
Experimental: Western blotting analysis: Retina lysates were homogenized in RIPA buffer supplemented with protease and phosphatase inhibitors. Samples (20 μg protein) were run on 10% sodium dodecyl sulfate-polyacrylamide gel electrophoresis, transferred to nitrocellulose membrane and reacted with primary antibody followed by horseradish peroxidase-linked secondary antibody and enhanced chemiluminescence (Amersham Pharmacia). β-actin (mouse monoclonal antibody, 1:5000, Sigma-Aldrich) or GAPDH served as a loading control. The following primary antibodies were used: GFAP, PARP, A1.
Immunofluorescence labelling: PFA fixed eyeballs were washed in PBS and cryoprotected. Cryostat sections (15 μm) were permeabilized in 1% Triton (20 min) and blocked in 10% normal goat serum containing 1% BSA (one hour). Sections were then incubated overnight in primary antibodies at 4° C. On day two, the sections were incubated at room temperature for 1 hour in fluorescent conjugated secondary antibodies (Life Technologies), washed in PBS and mounted with Vectashield (Vector Laboratories)
PBS was used as vehicle control. Pups were anesthetized before treatment by intraperitoneal (i.p.) injection of ketamine/xylazine mixture. Intravitreal injections were performed using a 36-gauge NanoFil needle mounted to a 10-μL Hamilton syringe (World Precision Instruments). Two treatment strategies were employed. […]

[3] = Retinal ischemia-reperfusion (IR) injury: PEG-A1 penetration of the blood-retina barrier (anti-PEG Western blot, flat-mount immunolabeling); type: in vivo, mouse
Experimental: (§1) Mouse retinal ischemia-reperfusion (IR) injury and traumatic optic neuropathy (TON) models: All experiments were performed in accordance with the ARVO Statement for the Use of Animals in Ophthalmic and Vision Research and were approved by the institutional animal care and use committee (Animal Welfare Assurance no. D16-00197). Wild-type (WT) C57BL/6J mice (10-12 weeks old) were anesthetized using ketamine/xylazine mixture then subjected to retinal ischemia-reperfusion (IR) injury or optic nerve crush (ONC) to model traumatic optic neuropathy (TON) as described in Shosha, et al., Cell death & disease, 7:e2483-e (2016) and Xu, et al., Frontiers in Neuroscience, 12:970 (2018). Mice were sacrificed at 24 hours or 7 days after by deep anesthesia followed by trans-cardial perfusion with PBS or thoracotomy and eyeballs were collected and fixed in 4% PFA for immunolabeling or retinas were extracted without fixation and homogenized in Radioimmunoprecipitation Assay (RIPA) lysis buffer for Western blotting.
Western blotting: Western blotting on retina or brain was conducted as described in Fouda, A Y, et al., Cell death & Disease, 9:1001 (2018). Membranes were probed with anti-PEG (RevMAb Biosciences, 1:1000) and anti-albumin (Bethyl Laboratories, 1:5000). Uncropped blots are included in FIG. 22.
Fluorescent immunolabeling: Retinal flat-mounts were permeabilized and immunolabeled with anti-PEG antibody (RevMAb Biosciences, 1:400) and co-stained with Alex594-labeled Griffonia simplicifolia isolectin B4 (1:200; Invitrogen) as described in Shosha, et al., Cell death & disease, 7:e2483-e (2016).
Mice were deeply anesthetized and sacrificed 24 hours later by trans-cardial perfusion with PBS (FIG. 16A). […] These mice were sacrificed at day 7 without trans-cardial perfusion and retina flat-mounts were immunolabeled to show PEG distribution within the retina (FIG. 16D).
PEG-A1 treatment in acute retinal and brain injury mouse models: A pharmaceutical grade of PEG-A1 was provided as a kind gift from Bio-Cancer Treatment International Limited (BCT, Hong Kong). […] Methoxy polyethylene glycol propionic acid (MW 5,000—Sigma, Catalog number 88908-1G-F) was used as vehicle control.

[4] = Optic nerve crush (ONC) model: PEG-A1 penetration (Western blot, flat-mount immunolabeling); type: in vivo, mouse; conditions: Western blot at 24 hours, flat-mount immunolabeling at 7 days
Experimental: as §1
Western blotting: Western blotting on retina or brain was conducted as described in Fouda, A Y, et al., Cell death & Disease, 9:1001 (2018). Membranes were probed with anti-PEG (RevMAb Biosciences, 1:1000) and anti-albumin (Bethyl Laboratories, 1:5000). Uncropped blots are included in FIG. 22. […]

[5] = test system: bone marrow-derived macrophages (BMDMs); assay: PEG-A1 intracellular uptake by bone marrow-derived macrophages (anti-PEG Western blot); type: cell-based, mouse; conditions: BMDMs treated overnight, washed with PBS
Experimental: BMDMs: Bone marrow-derived macrophages (BMDMs) were freshly isolated from WT mice and differentiated in culture as described in Fouda, A Y, et al., Cell death & Disease, 9:1001 (2018). To determine PEG-A1 intracellular uptake by macrophages, BMDMs were treated overnight with PEG-A1 or vehicle and then washed several times with phosphate buffered saline (PBS) before collection in RIPA buffer for Western blotting.
Previous studies have shown that myeloid specific A1 deletion using the LysM cre mice leads to increased neurodegeneration in the retinal IR model (Fouda, A Y, et al., Cell death & Disease, 9:1001 (2018)). […] To test the effect of possible neuronal A1 deletion on the previously reported IR outcome in these mice, control and myeloid-specific A1 KO retina explants were subjected to OGD/R (3 hours/21 hours) (FIG. 21A). The explant model excludes any effects due to infiltrating myeloid cells. […] To further test if macrophage can incorporate PEG-A1, BMDMs were treated with PEG-A1 or vehicle overnight and then washed with PBS several times before Western blotting.

[6] = human, in vivo; cited from earlier work
[7] = 25 mg/kg i.p. at 3 hours after reperfusion, 24 hours, perfused
[8] = 25 mg/kg i.p. at 3 hours and day 4, day 7, no perfusion

B1: PEG-A1: recombinant human arginase (rhArg) covalently attached to methoxy polyethylene glycol (mPEG-SPA; MW 5,000) via succinamide propionic acid (SPA) linker (protein, UniProt P05089 1-322, looked up)
Arginase-1: MSAKSRTIGIIGAPFSKGQPRGGVEEGPTVLRKAGLLEKLKEQECDVKDYGDLPFADIPNDSPFQIVKNPRSVGKASEQLAGKVAEVKKNGRISLVLGGDHSLAIGSISGHARVHPDLGVIWVDAHTDINTPLTTTSGNLHGQPVSFLLKELKGKIPDVPGFSWVTPCISAKDIVYIGLRDVDPGEHYILKTLGIKYFSMTEVDRLGIGKVMEETLSYLLGRKKRPIHLSFDVDGLDPSFTPATGTPVVGGLTYREGLYITEEIYKTGLLSGLDIMEVNPSLGKTPEEVTRTVNTAVAITLACFGLAREGNHKPIDYLNPPK
modifications: mPEG-SPA 5 kDa conjugate
notes: recombinant human arginase (rhArg) covalently attached to methoxy polyethylene glycol (mPEG-SPA; MW 5,000) via succinamide propionic acid (SPA) linker
Question: What does the source list for B1?
Answer: vitreous arginase activity ([1]; day 3 post injection): three-fold; vitreous arginase activity ([1]; day 6): returned to baseline; vitreous arginase activity as compared to vehicle treatment ([1]; immediately after administration): about six-fold increase; OIR-induced calbindin-positive horizontal cell loss ([2]; P17, compared to vehicle treatment): significantly rescued; cleavage of the pro-apoptotic marker PARP (Western blot) ([2]; P17 OIR retinal lysates): significantly reduced; anti-PEG immunoreactivity in liver homogenates (Western blot) [3, 7]: strong band; anti-PEG reactivity in retina homogenates, IR-injured retinas [3, 7]: strong anti-PEG reactivity; anti-PEG reactivity in retina homogenates, sham eyes [3, 7]: faint anti-PEG reactive bands; PEG distribution within the retina (flat-mount immunolabeling), IR-injured retinas [3, 8]: more diffuse signal; PEG distribution within the retina (flat-mount immunolabeling), sham retinas [3, 8]: restricted to a vessel-like network; penetration into brain or sham contralateral retina/optic nerve after ONC [4]: not into the brain or sham contralateral retina/optic nerve; penetration into retina/optic nerve tissue after ONC [4]: effective penetration; anti-PEG band in macrophage cell lysate (intracellular uptake) [5]: strong band; safety and tolerability in humans [6]: safe and well-tolerated
